From IntAct's records for PubMed 31243363

B1: Phospholipid-transporting ATPase DRS2 (Saccharomyces cerevisiae), P39524 (parent)
chain: MNDDRETPPKRKPGEDDTLFDIDFLDDTTSHSGSRSKVTNSHANANYIPPSHVLPEETIDLDADDDNIENDVHENLFMSNNHDDQTSWNANRFDSDAYQPQSLRAVKPPGLFARFGNGLKNAFTFKRKKGPESFEMNHYNAVTNNELDDNYLDSRNKFNIKILFNRYILRKNVGDAEGNGEPRVIHINDSLANSSFGYSDNHISTTKYNFATFLPKFLFQEFSKYANLFFLCTSAIQQVPHVSPTNRYTTIGTLLVVLIVSAMKECIEDIKRANSDKELNNSTAEIFSEAHDDFVEKRWIDIRVGDIIRVKSEEPIPADTIILSSSEPEGLCYIETANLDGETNLKIKQSRVETAKFIDVKTLKNMNGKVVSEQPNSSLYTYEGTMTLNDRQIPLSPDQMILRGATLRNTAWIFGLVIFTGHETKLLRNATATPIKRTAVEKIINRQIIALFTVLIVLILISSIGNVIMSTADAKHLSYLYLEGTNKAGLFFKDFLTFWILFSNLVPISLFVTVELIKYYQAFMIGSDLDLYYEKTDTPTVVRTSSLVEELGQIEYIFSDKTGTLTRNIMEFKSCSIAGHCYIDKIPEDKTATVEDGIEVGYRKFDDLKKKLNDPSDEDSPIINDFLTLLATCHTVIPEFQSDGSIKYQAASPDEGALVQGGADLGYKFIIRKPNSVTVLLEETGEEKEYQLLNICEFNSTRKRMSAIFRFPDGSIKLFCKGADTVILERLDDEANQYVEATMRHLEDYASEGLRTLCLAMRDISEGEYEEWNSIYNEAATTLDNRAEKLDEAANLIEKNLILIGATAIEDKLQDGVPETIHTLQEAGIKIWVLTGDRQETAINIGMSCRLLSEDMNLLIINEETRDDTERNLLEKINALNEHQLSTHDMNTLALVIDGKSLGFALEPELEDYLLTVAKLCKAVICCRVSPLQKALVVKMVKRKSSSLLLAIGDGANDVSMIQAAHVGVGISGMEGMQAARSADIAVGQFKFLKKLLLVHGSWSYQRISVAILYSFYKNTALYMTQFWYVFANAFSGQSIMESWTMSFYNLFFTVWPPFVIGVFDQFVSSRLLERYPQLYKLGQKGQFFSVYIFWGWIINGFFHSAIVFIGTILIYRYGFALNMHGELADHWSWGVTVYTTSVIIVLGKAALVTNQWTKFTLIAIPGSLLFWLIFFPIYASIFPHANISREYYGVVKHTYGSGVFWLTLIVLPIFALVRDFLWKYYKRMYEPETYHVIQEMQKYNISDSRPHVQQFQNAIRKVRQVQRMKKQRGFAFSQAEEGGQEKIVRMYDTTQKRGKYGELQDASANPFNDNNGLGSNDFESAEPFIENPFADGNQNSNRFSSSRDDISFDI
partner: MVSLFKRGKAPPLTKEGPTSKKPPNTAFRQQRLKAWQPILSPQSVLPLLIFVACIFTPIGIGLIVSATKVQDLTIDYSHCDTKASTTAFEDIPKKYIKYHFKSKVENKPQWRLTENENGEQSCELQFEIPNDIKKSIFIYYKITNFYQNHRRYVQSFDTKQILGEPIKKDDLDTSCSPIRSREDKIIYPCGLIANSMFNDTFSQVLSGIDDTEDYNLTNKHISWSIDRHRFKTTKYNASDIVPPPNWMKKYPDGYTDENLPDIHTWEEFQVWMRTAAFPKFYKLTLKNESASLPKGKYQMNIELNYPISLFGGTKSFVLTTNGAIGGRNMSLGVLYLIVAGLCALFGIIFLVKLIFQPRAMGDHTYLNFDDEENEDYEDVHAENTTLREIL

Variants of: B1
Details: with cdc50_yeast CDC50, P25656

Row | effect of a mutation on the interaction | Variant
1 | with no effect | Y1235A
2 | with no effect | Y1235F
3 | with no effect | H1236A
